In patent US20240317847A1 (Bayer, published 2024):

T1: human IL-11 (human, UniProt P20809 22-199)
T1 sequence: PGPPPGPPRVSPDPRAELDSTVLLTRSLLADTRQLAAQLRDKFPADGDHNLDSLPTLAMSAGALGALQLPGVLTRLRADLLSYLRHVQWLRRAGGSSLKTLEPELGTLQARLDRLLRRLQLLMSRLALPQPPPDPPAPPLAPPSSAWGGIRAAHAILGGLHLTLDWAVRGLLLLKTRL

T2: murine IL-11 (mouse, UniProt P47873 22-199)
T2 sequence: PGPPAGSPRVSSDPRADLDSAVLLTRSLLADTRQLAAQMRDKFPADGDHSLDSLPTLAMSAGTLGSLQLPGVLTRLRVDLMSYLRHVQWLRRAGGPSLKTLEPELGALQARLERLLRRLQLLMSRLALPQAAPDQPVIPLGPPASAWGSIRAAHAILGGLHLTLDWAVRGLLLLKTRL

T3: cynomolgus IL-11 (cynomolgus, UniProt P20808 22-199)
T3 sequence: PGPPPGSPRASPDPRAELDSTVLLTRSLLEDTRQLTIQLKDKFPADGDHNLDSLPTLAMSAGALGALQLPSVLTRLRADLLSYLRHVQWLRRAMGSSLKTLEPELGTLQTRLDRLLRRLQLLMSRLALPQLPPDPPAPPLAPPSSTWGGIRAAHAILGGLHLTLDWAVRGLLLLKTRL

T4: rat IL-11 (rat, UniProt Q99MF5 22-199)
T4 sequence: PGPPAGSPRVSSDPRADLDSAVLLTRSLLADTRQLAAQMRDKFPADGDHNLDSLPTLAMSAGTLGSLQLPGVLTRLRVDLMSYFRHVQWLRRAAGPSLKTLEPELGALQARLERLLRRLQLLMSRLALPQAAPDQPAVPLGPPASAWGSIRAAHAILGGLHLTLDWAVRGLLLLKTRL


How the values were obtained:
[1] = molecular target: T1, human IL-11; experiment: cell-based or functional assay
[2] = molecular target: T2, murine IL-11; experiment: cell-based or functional assay
[3] = molecular target: T3, cynomolgus IL-11; experiment: cell-based or functional assay
[4] = molecular target: T4, rat IL-11; experiment: cell-based or functional assay
[5] = molecular target: T1, human IL-11; experiment: SPR 37 C, antibody captured, IL-11 as analyte
Protocol: (§1) To assess the binding kinetics and affinity of anti-IL-11 antibodies as well as their species cross-reactivity profile, binding assays were conducted using surface plasmon resonance (SPR). Binding assays were performed on a Biacore T200 instrument or on a Biacore 8K+ instrument (Cytiva) at 37° C. using assay buffer HBS EP+, 300 mM NaCl, 1 mg/ml BSA, 0.05% NaN3. Antibodies were captured either via anti-human Fc IgGs (“Human antibody capture kit”, Order No. BR100839, Cytiva) or via anti-mouse Fc IgGs (“Mouse antibody capture kit, Order No. BR100383, Cytiva) covalently amine coupled to a Series S CM5 sensor chip (Cytiva) depending on the isotype. The amine coupling was carried out according to the manufacturer's instructions using 1-ethyl-3-(3-dimethylaminopropyl) carbodiimide hydrochloride (EDC), N-hydroxysuccinimide (NHS) and ethanolamine HCl, pH 8.5 (“Amine Coupling Kit” BR-1000-50, Cytiva.). Human, mouse, cynomolgus or rat IL-11 was used as analyte at several dilutions within the concentration range from 0.05-200 nM. For binding assays with only one concentration 200 nM IL-11 was used. The sensor surface was regenerated with glycine pH 1.7 after each antigen injection. Obtained sensorgrams were double referenced (subtraction of reference flow cell signal and buffer injection) and were fitted to a 1:1 Langmuir binding model to derive kinetic data using the Biacore T200 Evaluation software or the Biacore Insight software. If no value is reported, there was either no binding or very low binding and multiphasic binding behavior. Values below 1E-12 were considered to be below the dynamic range of the instrument and set to <1E-12.

[6] = molecular target: T2, murine IL-11; experiment: SPR 37 C, antibody captured, IL-11 as analyte
Protocol: as §1

[7] = molecular target: T3, cynomolgus IL-11; experiment: SPR 37 C, antibody captured, IL-11 as analyte
Protocol: as §1

[8] = molecular target: T4, rat IL-11; experiment: SPR 37 C, antibody captured, IL-11 as analyte
Protocol: as §1

[9] = molecular target: T1, human IL-11; experiment: Di-complex ELISA, competitor canine IL11RA-Fc on coated IL-11;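 as to Efficacy (%): signal drop relative to signal at lowest antibody concentration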
Protocol: (§2) The assay is performed using streptavidin coated microtiter plates (Greiner bio-one, #781997). In a first step, 10 nM biotinylated mouse IL-11 (Invigate, Germany, e.g., lot #C210819-09) or human IL-11 (Invigate, Germany, e.g., lot #C121021-19) is coated in 25 μl PBS on the plate at 4° C. overnight. Next day, the plate is washed three times with 50 μl PBST and then blocked with 50 μl SmartBlock (Candor, #113125) for one hour at room temperature (RT). After additional three washes with PBST, 25 μl of a mixture of the murine anti IL-11 antibody and recombinant canine IL11RA-Fc fusion protein (Sino Biological, #70078-D02H) in PBS-T, 10% Smartblock are added simultaneously to the plate and incubated for one hour at RT. […] After three additional washes with PBS-T, 25 μl anti-human-POD (Sigma, #A0170) in PBS-T, 10% Smartblock is added and incubated for 1 hour at RT. After a final three washes with PBS-T, 25 μl AmplexRed (Fisher Scientific, A12222), 1/1000 in PBS, 0,003% H₂O₂, is added as substrate and incubated for 15 min at RT in the dark. Then, the fluorescence is measured with a plate reader at 535/595 nm. Signals from dose responses were used to calculate IC50 values (GraphPad Prism). Efficacy was calculated as [(signal measured at lowest antibody concentration−signal measured at the highest antibody concentration)×100] divided by (signal measured at lowest antibody concentration−signal measured in the absence of IL11Ra).
(§3) IgG converted antibodies were subjected to the experimental assay procedure described in Example 18.

[10] = molecular target: T2, murine IL-11; experiment: as above
Protocol: as §2, §3

Row | RGA Efficacy (%) [1] [%] | RGA IC50 [1] [nM] | RGA Efficacy (%) [2] [%] | RGA IC50 [2] [nM] | RGA Efficacy (%) [3] [%] | RGA IC50 [3] [nM] | RGA Efficacy (%) [4] [%] | RGA IC50 [4] [nM] | Kd [5] [nM] | Kd [6] [nM] | Kd [7] [nM] | Kd [8] [nM] | Efficacy (%) [9] [%] | Efficacy (%) [10] [%] | IC50 [10] [nM] | Binder
1 | 100 | 1.6 | 101 | 1.4 | 97.2 | 0.68 | 101 | 1.4 | 0.0026 | 0.004 | 1.1 | 0.02 | 2 | 4.8 | – | TPP-29523 (antibody, mouse IgG1, mIgG1, Lambda) heavy: QVQLVESGGGVVQPGRSLRLSCAASGFTFSHYDMHWVRQAPGKGLEWVAVISYEGSVKFYADSVKGRFTISRDNSKNTLYLQMNSLRAEDTAVYYCARTPGFHFDYWGQGTLVTVSSAKTTPPSVYPLAPGSAAQTNSMVTLGCLVKGYFPEPVTVTWNSGSLSSGVHTFPAVLQSDLYTLSSSVTVPSSTWPSETVTCNVAHPASSTKVDKKIVPRDCGCKPCICTVPEVSSVFIFPPKPKDVLTITLTPKVTCVVVDISKDDPEVQFSWFVDDVEVHTAQTQPREEQFNSTFRSVSELPIMHQDWLNGKEFKCRVNSAAFPAPIEKTISKTKGRPKAPQVYTIPPPKEQMAKDKVSLTCMITDFFPEDITVEWQWNGQPAENYKNTQPIMDTDGSYFVYSKLNVQKSNWEAGNTFTCSVLHEGLHNHHTEKSLSHSPGK light: QSVLTQPPSASGTPGQRVTISCSGSSSNIGSNYVNWYQQLPGTAPKLLIYYDDLRPSGVPDRFSGSKSGTSASLAISGLRSEDEADYYCSAWDDSLSGVVFGGGTKLTVLGQPKSSPSVTLFPPSSEELETNKATLVCTITDFYPGVVTVDWKVDGTPVTQGMETTQPSKQSNNKYMASSYLTLTARAWERHSSYSCQVTHEGHTVEKSLSRADCS
2 | 100 | 1.8 | 101 | 1.2 | 99.2 | 0.89 | 99.7 | 1 | 0.01 | 0.0035 | 0.61 | 0.023 | 6.8 | 12.8 | – | TPP-29519 (antibody, mouse IgG1, mIgG1, Lambda) heavy: QVQLVESGGGVVQPGRSLRLSCAASGFTFSHYDMHWVRQAPGKGLEWVAVISYHGSVKFYADSVKGRFTISRDNSKNTLYLQMNSLRAEDTAVYYCARTPGFHFDYWGQGTLVTVSSAKTTPPSVYPLAPGSAAQTNSMVTLGCLVKGYFPEPVTVTWNSGSLSSGVHTFPAVLQSDLYTLSSSVTVPSSTWPSETVTCNVAHPASSTKVDKKIVPRDCGCKPCICTVPEVSSVFIFPPKPKDVLTITLTPKVTCVVVDISKDDPEVQFSWFVDDVEVHTAQTQPREEQFNSTFRSVSELPIMHQDWLNGKEFKCRVNSAAFPAPIEKTISKTKGRPKAPQVYTIPPPKEQMAKDKVSLTCMITDFFPEDITVEWQWNGQPAENYKNTQPIMDTDGSYFVYSKLNVQKSNWEAGNTFTCSVLHEGLHNHHTEKSLSHSPGK light: QSVLTQPPSASGTPGQRVTISCSGSSSNIGSNYVSWYQQLPGTAPKLLIYYDDLRPSGVPDRFSGSKSGTSASLAISGLRSEDEADYYCSAWDDSLSGVVFGGGTKLTVLGQPKSSPSVTLFPPSSEELETNKATLVCTITDFYPGVVTVDWKVDGTPVTQGMETTQPSKQSNNKYMASSYLTLTARAWERHSSYSCQVTHEGHTVEKSLSRADCS
3 | 81.2 | – | 96.9 | 0.89 | 87.8 | 0.44 | 89.9 | 1.8 | 0.34 | 0.23 | 0.2 | 0.33 | 36.3 | 43.4 | 2.6 | TPP-29528 (antibody, mouse IgG1, mIgG1, Lambda) heavy: EVQLLESGGGLVQPGGSLRLSCAASGFTFSSYGMHWVRQAPGKGLEWVAVISYDGSYKYYADSVKGRFTISRDNSKNTLYLQMNSLRAEDTAVYYCAAGVPDYWGQGTLVTVSSAKTTPPSVYPLAPGSAAQTNSMVTLGCLVKGYFPEPVTVTWNSGSLSSGVHTFPAVLQSDLYTLSSSVTVPSSTWPSETVTCNVAHPASSTKVDKKIVPRDCGCKPCICTVPEVSSVFIFPPKPKDVLTITLTPKVTCVVVDISKDDPEVQFSWFVDDVEVHTAQTQPREEQFNSTFRSVSELPIMHQDWLNGKEFKCRVNSAAFPAPIEKTISKTKGRPKAPQVYTIPPPKEQMAKDKVSLTCMITDFFPEDITVEWQWNGQPAENYKNTQPIMDTDGSYFVYSKLNVQKSNWEAGNTFTCSVLHEGLHNHHTEKSLSHSPGK light: QSVLTQPPSASGTPGQRVTISCSGSSSNIGSDYDVHWYQQLPGTAPKLLIYSNEERPSGVPDRFSGSKSGTSASLAISGLRSEDEADYYCSAWDSSLSGPVFGGGTKLTVLGQPKSSPSVTLFPPSSEELETNKATLVCTITDFYPGVVTVDWKVDGTPVTQGMETTQPSKQSNNKYMASSYLTLTARAWERHSSYSCQVTHEGHTVEKSLSRADCS
